Test results as given in a protein production outcome set (Wang et al. 2014).

Assay: label from the status in PepcDB records

| Sequence | protein production |
| --- | --- |
| MEIIHLSEIDSTNDYAKELAKEGKRNFIVLADKQNNGKGRWGRVWYSDEGGLYFSMVLDSKLYNPKVINLLVPICIIEVLKNYVDKELGLKFPNDIMVKVNDNYKKLGGILTELTDDYMIIGIGINVNNQIRNEIREIAISLKEITGKELDKVEILSNFLKTFESYLEKLKNKEIDDYEILKKYKKYSITIGKQVKILLSNNEIITGKVYDIDFDGIVLGTEKGIERIPSGICIHVR | not failed |
| MEIIIYIFVSIAIISLQAITPFVIRKSECFGVNVGERANRNAELTQLKKQYVGQVILWTSFVAIIGIALIQGFHSSENTQAGIFIASMFSQLIVSFIIYYRFHHTTLQWKRDKIEAGEISTNSIIMVDTSFHRRKMVISYTWFIVPLLIFIITLAITVVFYSTAPVDFPIHFDMSGTVTDTVAKSPRVVLLLPMMQLGMIALFIFINFVIARSKQTVENENPTDSLKRNMLFRQISSKAMLIMCTIMVIDFLIMQVVTLLALPAEWMMVTMIISVVLILFGTVLLAVKVGQGGSRLKFADQPDGVNKPIRDDDSFWKAGVIYFNRNDPALFVEKRFGIGWTINTARPVAWLSFVIIIAVIILISILF | failed |
| MEIRMSKSSSKPVLVTCGLPYANGKAHIGHLRTYVPADIYARSLKKEGREVTFVCGSDTHGTPIVVNAEELGITPTELVEIYHKHFDETFKQLGIYFDAFGTTDDPENHNRTHDIVSRLIEKGYVYPKIIEIAYCPACNRFLPDRYVEGACPHCGETARGDECDQGCGKHLEPGELQNPVCTICGGPAEYRQQEHFFFKLSEFSNYLMDYLSKDLGGTTNAINYARGWVKQGLTDWCITRNLEWGVKFPGHEDLVVYVWVDAPIGYIAFTEEWAAQAGDSWEKFWKGDGEIVHFIGGDITYHHCIFWPAMLKGADYSVPTAVVASGMVKIEDRKFSKTRGYVVWVGEDYLDHGFHPDLLRYYLASYTSHTKELNFSWRVLQEKINAELVAVLGNFLYRTMLFAFKNYGEVPEGEVEPEIRKEIEKALVEVKAAMEEYEFKKAVDSAMALASFGNTYFQSHEPWKLIKEDRDACGQVVYNCLHLAKALSLIFEPVIPQTMEKAWKGLGHESDIHAALYEETLVPLKAGTKLAKPEILFTKLEDDRIGEMEEIANQRVAAANAKRNGVKGGEKEPSKSEGMGPSEASKASEKTVDVATAEEKVQVETLPVIDYEDFAKLDIRVGKVLLVEPVKKSKKLLRIEVDIGEEKPRQLVAGMASYYTPEELVGKSVIVLANLKPAKLCGVESNGMMLAADDGGAIVAALMPDKEIKSGSRIR | failed |
| MEIRTFLERALKEDLGHGDLFERVLEKDFKATAFVRAKQEGVFSGEKYALELLEMTGIECVQTIKDKERFKPKDALMEIRGDFSMLLKVERTLLNLLQHSSGIATLTSRFVEALNSHKVRLLDTRKTRPLLRIFEKYSVLNGGASNHRLGLDDALMLKDTHLRHVKDLKSFLTHARKNLPFTAKIEIECESFEEAKNAMNAGADIVMCDNLSVLETKEIAAYRDAHYPFVLLEASGNISLESINAYAKSGVDAISVGALIHQATFIDMHMKMA | failed |
| MEISEQESVLEVKKRLGQFLQIPTSSITLFVSCWELIDGLDIEDYPIISHGTRIDLTVTPLFTAPSFIHAAVRKIHVTVKFPSKQFTVEVDRTETVSSLKDKIHIVENTPIKRMQLYYSGIELADDYRNLNEYGITEFSEIVVFLKSINRAKDVAPTSSSLFNGARIPVEIKDTCTISEMREGLQANKTLPRDEYIFVHKQRIMRENCSLRWHGVENGDTLFVFKGSISREGF | failed |
| MEITLNSGFKMPIIGLGVWRMEKEELRDLIIDAIKIGYRHLDCAANYKNEAEVGEALTEAFTTGLVKREDLFITTKLWSSDHGHVIEACKDSLKKLQLDYLDLFLVHIPIATKHTGIGTTDSALGDDGVLDIDTTISLETTWHDMEKLVSMGLVRSIGISNYDVFLTRDCLAYSKIKPAVNQIETHPYFQRDSLVKFCQKHGICVTAHTPLGGATANAEWFGTVSCLDDPVLKDVAEKYKQTVAQIVLRWGIQRNTVVIPKTSKPERLEENFQVFDFQLSKEDMEVIKSMERNYRTHQTAKFWGIELYA | not failed |
| MEITLSKSLLIAVVLAPLLGSIIAGLFGRQVGRKGAQYVTILGVAVSCVLSCVTLYQLVEQGASPFNQNLYTFFDVGNYSAHVGFMVDRLTAMMMVVVTFVSLLVHIYTIGYMEEDPGYQRFFSYISLFTFSMLTLVMSNNFLQLFFGWEAVGLVSYLLIGFWFKRPTAVFANMKAFLVNRVGDFGFILGIAGVLLWFGSLDYSTVFANATTMAGAKVQLFAGHEWSVMTLICICLFIGAMGKSAQVPLHVWLPDSMEGPTPISALIHAATMVTAGIFMVARMSPLFELSETALNFILFIGATTAFFTGLIGIVQNDIKRVVAYSTLSQLGYMTVALGVSAYSAAVFHLMTHAFFKALLFLAAGSVIIGMHHEQDMRKMGGLRKYMKVTYWTSVIGTLALVGTPFFSGFYSKDTIIEAAAHHAHESHNWVATYGYWAVLGGVLVTSFYSFRLLFLTFHGKERFRDAHAHDVHSHHDSAHTDAEAQVHSHDAHAHDDHGHGHHGAHEPHESKWVVTLPLVLLAIPSIAIGFFTIGPMLFGTDWQGHHAVHAMKGQAVSFFTGIVDFYDPARDTVGALAEEFHGPVAFALHGMLAAPFFLTVAGLLLAALFYLWKPELATKSRKTFAPIVWLLENKYGFDKLWINGFAGGGVVLGKASRAVDTHVVDGAVVNGSARLIDLAANLLRRTQSGFLYHYAFAMIIGLIALLAVLMHFWR | failed |
| MEKAILITFLIATTSMVYQTIGQEEEISPISPESLAYEPAAAYEYDHELLSHMTTRRIKFLQDCSDKMSSKCNVEMTEGLIDDKPVSEDCCVNFLKIGRECHEGLMTFVFATYELKDVASAILPRSKRMWNKCVETTAAKIGAPLAFET | failed |
| MEKEIKEKNLPLELTLVEASPRVGGKIQTVKKDGYIIERGPDSFLERKKSAPQLVKDLGLEHLLVNNATGQSYVLVNRTLHPMPKGAVMGIPTKIAPFVSTGLFSLSGKARAAMDFILPASKTKDDQSLGEFFRRRVGDEVVENLIEPLLSGIYAGDIDKLSLMSTFPQFYQTEQKHRSLILGMKKTRPQGSGQQLTAKKQGQFQTLSTGLQTLVEEIEKQLKLTKVYKGTKVTKLSHSGSCYSLELDNGVTLDADSVIVTAPHKAAAGMLSELPAISHLKNMHSTSVANVALGFPEGSVQMEHEGTGFVISRNSDFAITACTWTNKKWPHAAPEGKTLLRAYVGKAGDESIVDLSDNDIINIVLEDLKKVMNINGEPEMTCVTRWHESMPQYHVGHKQRIKELREALASAYPGVYMTGASFEGVGIPDCIDQGKAAVSDALTYLFS | failed |
| MEKEMARLAAFDMDGTLLMPDHHLGEKTLSTLARLRERDITLTFATGRHALEMQHILGALSLDAYLITGNGTRVHSLEGELLHRDDLPADVAELVLYQQWDTRASMHIFNDDGWFTGKENPALLQAFVYSGFRYQIIDVKKMPLGSVTKICFCGDHDDLTRLQIQLYEALGERAHLCFSATDCLEVLPVGCNKGAALTVLTQHLGLSLRDCMAFGDAMNDREMLGSVGSGFIMGNAMPQLRAELPHLPVIGHCRNQAVSHYLTHWLDYPHLPYSPE | failed |
| MEKGTLVEFRVQGDRRLGVVDRPDGKTRWFVVDERGQSHSLAPRQITYTVNGNTYKPSEIDRFLEEVKPYLDPSSLEVAWELLVEDGETVTPSQMANLLFSESNSAPSYAAHCLLSDDKLYFKQKGDAYEPRTAAQVADRKHQIEVEALKARGQQEFLTRVEQALQGEAVEWQRHDRQRLEGLEKYGTLLADIVKVGLNYDSLARAYPPPAPVLETMNMLGRPATPQGAFQLLVDLGWWSATENLFLRRSSIPVQFPSKVLEVAQQRLDFPPTDLDTNRLDLTHLKVYTVDDESTTEIDDGLSWEKLPDDRERLWVHIADPTRYLAPEDDLDLEARKRGSTVYLPTGMIPMFPEVLATGPMSLVQGRVCCALSFGVVLDGTGAVQDFTIHPSLIKPTYRLTYEDVDEMLELGVQAEPEIAAIATWATKRKSWRYNQGAISINMPEAMIKVKNDDISIDILDDSRSRQLVAEMMILAGEVAARYGQVHNIPLPFRGQPQPELPPEDELLRLPAGFVRACAMRRCMPKSEMSITPVRHAGLGLDTYTQATSPIRRYSDLLTHFQLKAHLRGEVPPFTAEELKEVMMTVTSTTQELTMVERQTNRYWALEYLRRHPEEIWQVTVLMWLREDSNLALILLEDLGLQLPMVFKRSVRLGEQVLVKVSISDPQKDVIQFQEIIYQEAQTAAN | failed |
| MEKGVGFEKDMKTVSDGFVGGFFPVSTTKIAWKSRKRSALLNLDKAPEAVTEVTPEKNEITAMDTEKVGEPMTTTPLLSEKRKALFEPLEPITNLNGKRPTAADSLLPPPDFETANYPKGWLIGKKRKLVNVDVVESMRRIAVQEMNRKDREIDGLNEQLEEDSRCLEHLQLQLLQERSKRTEIERENTMLKEQVDMLVNMIQEDDEEGAEEP | failed |
| MEKISDLIECIAYEKNLPKEMISKVIQGCLLKMAQNELDPLARYLVVEENKQLQLIQLVEVLEDGDERLVNDPSKYISLSKAKEMDPSVKIKDELSYSLSLESMKQGAINRLFKDLQYQLEKALEDSHFEAFQKRLNSVLMGQVILVDHNQNTFIEIEQQFQGVLSMRHRIKGESFKVGDSIKAVLTQVKRTKKGLLLELSRTTPKMLEALLELEVPEIKDKEIEIIHCARIPGNRAKVSFFSHNARIDPIGAAVGVKGVRINAISNELNKENIDCIEYSNVPEIYITLALAPAKILSVEIKKIPIEELNAEEKESIQERFIVNNHLQKAKVRLLDIEKSKAIGKGGVNVCLASMLTGYHIEFETIPSVKENAENESEKETPKVGVEALESLFKNLEHHHHHH | not failed |
| MEKKIVYFNKPGRENTEETLRLAVERAKELGIKHLVVASSYGDTAMKALEMAEGLEVVVVTYHTGFVREGENTMPPEVEEELRKRGAKIVRQSHILSGLERSISRKLGGVSRTEAIAEALRSLFGHGLKVCVEITIMAADSGAIPIEEVVAVGGRSRGADTAVVIRPAHMNNFFDAEIKEIICMPRNKR | not failed |
| MEKKVHYKMYKAGKKWVFVMLSTVALTGIMVMSGNIAKADAVAQSSTEQVAKIDTTSATTTSTQATAQVEKATNNVNESNAAQTSATTTTEQSSVNAGATSSSQNNKQATTTSVAASQNTSVANKDQVSSTQSSTTQNSEEPKVETPVNTADNASQKNVNGNWYLVDNNTGKNLTGFQEIKYQNKVVYYAPSNAQMQYGWQDINNNRYYFDTFDGAMTTGQKNINGNWYMFDAQGVLQTGFQRIESQNKTVYYSEDKDKLGQMQYGQKNIKGNWYNFDTYDGAMKTGFVTIPSQNKTVYYSEDKAKLGQMQYGKTKVNGKTYYFDTYDGAMKKGLTNINGNYYYFDNSGVMATNQKNINGNWYMFNDQGIMQTGFVHIPSQGKTVYYSKDKDKLGQMLYGQKNINGRWYNFDTYDGAMKTGFVYIPSQNKTVYYDENQSTLGQMKYGFQNINGKTYYLDTFDGSMKTGQKNINGNWYMFDDKGVMKVGFVTIPSQNKTVYYSEDKAKLGQMQYGKTGIKGKTYYFDTFDGAMKTGVFYNKETGTLQYYGNNGQMNYGNVVINGKVYAFDAAGNYLGKGNVTIDGHDYYLGNNNQVLVGFQKISNNTYYYNKDNGQKEYGQKNIDGSWYMFDDKTGIMKTGFVTIPSQNKTVYYGNNGQMQYGQRNIDGHWYMFDTYNGAMKTGLVYIPEQNKTVYYGSNGQMQYGVFRVGKITYTADHISGAIIGVYNDAEVIGQNPELPTGCEITAVTMMLRYAGANINKIQLANEMPRSNNGDYGFVGNPFSVTGWWVFPTGVAPVVNKHLGHSQVMTGASLESIKNKLLNGHLVVAWVANMNGFVNHAIALTGYNGNTLYYNNPWTARKESMSVSSFYTHWNADKQRALSY | failed |
